# Test system: disulfide cyclized peptide Mpa-Tyr-II-Pro-Mea
substance,measurement,value
thrombin,thrombin activity in screen at compound concentration of around 10 µM (fluorogenic substrate),reduced the thrombin activity 52%

# From patent US20240279845
